Results published in patent US20170325479A1.

Assays:
[1] = target: T1, beta-lactoglobulin peptide VYVEELKPTPEGDLEILLQK
T1 chain: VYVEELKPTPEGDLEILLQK

H-AAPPA-NH2 = target: T2, H-AAPPA-NH2
T2 chain: AAPPA

[2] = target: T3, beta-lactoglobulin peptide IIAEK
T3 chain: IIAEK

[3] = target: T4, 33-mer of gliadin (alpha-2-gliadin) (aa56-88)
T4 chain: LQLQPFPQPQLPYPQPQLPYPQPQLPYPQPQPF

[4] = target: T5, beta-casein tryptic peptide HKEMPFPK
T5 chain: HKEMPFPK

[5] = target: T6, beta-casein tryptic peptide GPFPIIV
T6 chain: GPFPIIV

B1: proline tolerant tripeptidyl peptidase TRI083 (protein)
chain: QEPSSCKGTLVFEGETFNVFQPDCLRTEYSVDGYTPSVKSGSRIGFGSFLNESASFADQALFEKHFNIPSQNFSVVLINGGTDLPQPPSDANDGEANLDAQTILTIAHPLPITEFITAGSPPYFPDPVEPAGTPNENEPYLQYYEFLLSKSNAEIPQVITNSYGDEEQTVPRSYAVRVCNLIGLLGLRGISVLHSSGDEGVGASCVATNSTTPQFNPIFPATCPYVTSVGGTVSFNPEVAWAGSSGGFSYYFSRPWYQQEAVGTYLEKYVSAETKKYYGPYVDFSGRGFPDVAAHSVSPDYPVFQGGELTPSGGTSAASPVVAAIVALLNDARLREGKPTLGFLNPLIYLHASKGFTDITSGQSEGCNGNNTQTGSPLPGAGFIAGAHWNATKGWDPTTGFGVPNLKKLLALVRF
In the case of B1, the “digestion measured with LC-MS” value [1] is reported as “shows the digestion of a fragment of β-lactoglobulin (peptide VYVEELKPTPEGDLEILLQK) by a proline tolerant tripeptidyl peptidase”, the “hydrolysis of substrate followed by LC-MS and label free quantification” value (H-AAPPA-NH2) is reported as “proline tolerant tripeptidyl peptidase over time is able to degrade the peptide AAPPA (FIG. 5) and generate the product AAP (FIG. 6)” and the “digestion measured with LC-MS” value [2] is reported as “shows the digestion of a fragment of β-lactoglobulin (peptide IIAEK) by a proline tolerant tripeptidyl peptidase”. The Relative MS peak intensities of alpha-2-gliadin (intact substrate), 0 min (relative MS peak intensity) [3] was 100, the Relative MS peak intensities of alpha-2-gliadin (intact substrate), 1 min (relative MS peak intensity) [3] was 10 and the Relative MS peak intensities of alpha-2-gliadin (intact substrate), 3 min (relative MS peak intensity) [3] was 0. It also gave a Relative MS peak intensities of alpha-2-gliadin (intact substrate), 5 min (relative MS peak intensity) [3] of 0, a Relative MS peak intensities of alpha-2-gliadin (intact substrate), 10 min (relative MS peak intensity) [3] of 0 and a Relative MS peak intensities of alpha-2-gliadin (intact substrate), 15 min (relative MS peak intensity) [3] of 0. For the same protein, the Relative MS peak intensities of alpha-2-gliadin (intact substrate), 30 min (relative MS peak intensity) [3] was 0, the “hydrolysis of substrate followed by LC-MS” value [3] was “proline tolerant tripeptidyl peptidase was found to cleave the substrate alpha-2-gliadin consecutively into tri-peptides irrespective of a high proline content” and the “digestion measured with LC-MS” value [4] was “the peptide HKEMPFPK is also efficiently digested by the proline tolerant tripeptidyl peptidase”. For the same protein, the “digestion measured with LC-MS” value (Bradykinin) was “The proline tolerant tripeptidyl peptidase efficiently digests the bradykinin peptide having the amino acid sequence RPPGFSPFR (see FIG. 24)” and the “digestion measured with LC-MS” value [5] was “the proline tolerant tripeptidyl peptidase is able to efficiently digest this peptide with proline in the P1′ position and in the P2 position”.
